Experiment [1] addresses cell surface receptor composed of FGFR1c and co-receptor beta-Klotho (KLB) (human, UniProt P11362 22-822; Q86Z14 1-1044). In words: cell-based or functional assay.
The next experiment deals with T1, human beta-Klotho (KLB) (human, UniProt Q86Z14 53-997).
T1 construct: Bought protein; also called human KLB; β-Klotho
T1 sequence (looked up): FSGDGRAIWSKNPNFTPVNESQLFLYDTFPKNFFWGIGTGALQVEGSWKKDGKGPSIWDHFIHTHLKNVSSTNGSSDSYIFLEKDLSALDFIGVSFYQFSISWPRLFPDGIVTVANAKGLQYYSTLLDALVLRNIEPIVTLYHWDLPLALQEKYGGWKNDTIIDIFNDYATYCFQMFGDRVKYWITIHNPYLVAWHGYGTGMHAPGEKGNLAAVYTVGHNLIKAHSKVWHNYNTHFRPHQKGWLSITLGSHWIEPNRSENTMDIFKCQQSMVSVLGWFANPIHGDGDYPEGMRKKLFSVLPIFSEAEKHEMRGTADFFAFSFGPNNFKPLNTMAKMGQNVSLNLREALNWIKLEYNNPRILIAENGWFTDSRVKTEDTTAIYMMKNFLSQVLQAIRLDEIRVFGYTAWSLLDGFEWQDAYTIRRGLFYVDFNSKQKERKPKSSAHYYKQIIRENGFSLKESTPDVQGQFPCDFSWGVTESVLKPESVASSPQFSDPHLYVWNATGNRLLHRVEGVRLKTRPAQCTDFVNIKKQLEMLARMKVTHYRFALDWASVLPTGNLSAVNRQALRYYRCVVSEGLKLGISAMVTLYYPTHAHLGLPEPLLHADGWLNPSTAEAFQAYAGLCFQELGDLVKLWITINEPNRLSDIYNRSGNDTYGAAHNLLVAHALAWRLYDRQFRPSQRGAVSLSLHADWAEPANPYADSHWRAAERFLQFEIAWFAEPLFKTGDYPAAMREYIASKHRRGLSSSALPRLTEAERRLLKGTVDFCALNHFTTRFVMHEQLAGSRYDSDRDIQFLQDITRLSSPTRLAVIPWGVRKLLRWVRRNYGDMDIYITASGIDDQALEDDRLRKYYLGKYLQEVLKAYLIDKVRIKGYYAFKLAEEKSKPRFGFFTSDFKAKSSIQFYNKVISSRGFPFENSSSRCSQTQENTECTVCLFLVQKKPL
Briefly: BLI off-rate screening (Octet), crude supernatant.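 Note: supernatants tested at 25 µg/mL, dissociation from biosensors recorded in D-PBS with 0.1% BSA over 1800 s.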 On the technique in general: Biolayer interferometry detects binding as a change in optical thickness at a sensor tip.

26 molecules from patent US20220010021A1 (Sanofi, published 2022) can be followed below.

Changes are numbered by the printed parent chain.
Throughout, for Mean E max, Luciferase reporter gene assay: reference of the scale not given here.

cell surface receptor composed of FGFR1c and co-receptor beta-Klotho (KLB), sequence (P11362 22-822, chain 1 of 2): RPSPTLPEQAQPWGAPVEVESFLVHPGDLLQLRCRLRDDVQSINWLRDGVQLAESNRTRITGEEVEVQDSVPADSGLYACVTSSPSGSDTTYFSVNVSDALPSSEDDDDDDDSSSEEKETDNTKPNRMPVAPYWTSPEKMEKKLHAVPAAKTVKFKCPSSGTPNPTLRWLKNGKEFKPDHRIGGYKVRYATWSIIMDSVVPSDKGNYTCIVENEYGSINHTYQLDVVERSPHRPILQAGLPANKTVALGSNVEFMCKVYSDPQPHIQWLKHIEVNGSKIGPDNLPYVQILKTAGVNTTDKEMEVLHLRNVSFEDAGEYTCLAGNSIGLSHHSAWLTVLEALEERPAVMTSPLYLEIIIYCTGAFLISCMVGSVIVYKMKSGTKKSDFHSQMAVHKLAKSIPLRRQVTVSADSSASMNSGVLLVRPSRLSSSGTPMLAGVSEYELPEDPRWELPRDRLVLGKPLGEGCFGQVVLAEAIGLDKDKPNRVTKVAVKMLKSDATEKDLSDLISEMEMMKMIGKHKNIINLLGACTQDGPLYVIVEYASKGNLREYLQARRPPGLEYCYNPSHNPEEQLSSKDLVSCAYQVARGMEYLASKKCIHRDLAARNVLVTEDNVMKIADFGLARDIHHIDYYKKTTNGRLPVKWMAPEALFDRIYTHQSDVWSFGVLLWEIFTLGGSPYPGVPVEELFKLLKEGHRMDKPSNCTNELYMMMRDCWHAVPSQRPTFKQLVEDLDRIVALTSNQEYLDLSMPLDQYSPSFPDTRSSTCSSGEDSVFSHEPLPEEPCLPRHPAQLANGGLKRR
cell surface receptor composed of FGFR1c and co-receptor beta-Klotho (KLB), sequence (Q86Z14 whole entry, chain 2 of 2): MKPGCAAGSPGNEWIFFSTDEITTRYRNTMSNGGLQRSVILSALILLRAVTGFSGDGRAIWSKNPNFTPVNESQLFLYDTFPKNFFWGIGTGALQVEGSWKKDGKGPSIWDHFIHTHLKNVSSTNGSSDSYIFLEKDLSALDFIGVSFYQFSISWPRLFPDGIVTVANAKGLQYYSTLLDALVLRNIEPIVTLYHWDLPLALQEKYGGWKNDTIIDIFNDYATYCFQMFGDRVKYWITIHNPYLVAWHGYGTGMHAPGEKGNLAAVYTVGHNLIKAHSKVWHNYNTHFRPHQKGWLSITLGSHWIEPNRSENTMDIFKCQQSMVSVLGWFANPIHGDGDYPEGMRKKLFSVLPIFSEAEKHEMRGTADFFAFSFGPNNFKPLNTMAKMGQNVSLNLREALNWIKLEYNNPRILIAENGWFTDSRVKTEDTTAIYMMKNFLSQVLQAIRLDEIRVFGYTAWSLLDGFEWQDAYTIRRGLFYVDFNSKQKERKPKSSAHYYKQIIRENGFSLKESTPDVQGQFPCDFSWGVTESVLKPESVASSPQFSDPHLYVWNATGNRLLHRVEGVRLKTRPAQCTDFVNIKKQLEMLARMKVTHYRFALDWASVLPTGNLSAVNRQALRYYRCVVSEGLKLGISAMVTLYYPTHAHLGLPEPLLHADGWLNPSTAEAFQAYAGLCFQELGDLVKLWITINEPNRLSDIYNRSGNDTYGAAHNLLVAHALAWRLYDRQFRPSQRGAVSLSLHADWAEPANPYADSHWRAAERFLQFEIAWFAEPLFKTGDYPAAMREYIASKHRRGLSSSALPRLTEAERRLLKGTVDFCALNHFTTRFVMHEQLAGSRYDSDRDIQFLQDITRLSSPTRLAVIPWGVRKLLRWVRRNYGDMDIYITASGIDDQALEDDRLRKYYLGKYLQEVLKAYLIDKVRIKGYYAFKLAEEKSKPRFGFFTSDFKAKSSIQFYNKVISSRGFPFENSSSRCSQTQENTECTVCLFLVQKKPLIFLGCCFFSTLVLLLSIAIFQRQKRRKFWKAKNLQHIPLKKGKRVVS

B1: 16H7 light chain variant H96T (antibody, IgG4, V domains shown)
VH: not shown
VL: SYVLTQPPSVSVAPGQTARITCGGNNIGSESVHWYQQKPGQAPVLVVYDDSDRPSGIPERFSGSNSGNTATLTISRVEAGDEADYYCQVWDGNSDTVVFGGGTKLTVLG
notes: IgG4 backbone
One may read the koff as the first-order rate constant of dissociation. Low values mean slow dissociation, high ones fast dissociation. Regarding B1, in experiment [1], the “Mean E max, Luciferase reporter gene assay” value (“Mean E max” below) was found to be 110% and the “Mean EC50, Luciferase reporter gene assay” value (shortened to “Mean EC50”) was 0.11 nM. In the experiment with human beta-Klotho (KLB), the dissociation rate constant (koff) is 1.8e-05 s⁻¹.

B2: 16H7 light chain variant S31H (antibody, IgG4, V domains shown)
VH: not shown
VL: B1 VL with S31H, T96H
notes: IgG4 backbone
As for B2, in experiment [1], the “Mean E max” value was 110% and the “Mean EC50” value came out at 0.158 nM. The molecule further returned a koff in the experiment with human beta-Klotho (KLB) of 4.5e-05 s⁻¹.

B3: 16H7 light chain variant S94E (antibody, IgG4, V domains shown)
VH: not shown
VL: B1 VL with S94E, T96H
notes: IgG4 backbone
With B3, in experiment [1], the “Mean E max” value amounted to 100% and the “Mean EC50” value amounted to 0.122 nM. Also, in the experiment with human beta-Klotho (KLB), the koff was 1.4e-05 s⁻¹.

B4: 16H7 light chain variant N93F (antibody, IgG4, V domains shown)
VH: not shown
VL: B1 VL with N93F, T96H
notes: IgG4 backbone
B4: in experiment [1], the “Mean E max” value worked out at 100% and the “Mean EC50” value stood at 0.165 nM. For the same molecule, the koff in the experiment with human beta-Klotho (KLB) is 2.2e-06 s⁻¹.

B5: 16H7 light chain variant S51N (antibody, IgG4, V domains shown)
VH: not shown
VL: B1 VL with S51N, T96H
notes: IgG4 backbone
On to B5, for which, in experiment [1], the “Mean E max” value is 100% and the “Mean EC50” value came out at 0.113 nM. Further, the off-rate (koff) with human beta-Klotho (KLB) is 5.3e-05 s⁻¹.

B6: 16H7 light chain variant S94F (antibody, IgG4, V domains shown)
VH: not shown
VL: B1 VL with S94F, T96H
notes: IgG4 backbone
As to B6, in experiment [1], the “Mean E max” value was determined as 100% and the “Mean EC50” value was 0.132 nM. In the experiment with human beta-Klotho (KLB), the koff is 1e-07 s⁻¹.

B7: 16H7 light chain variant N93Y (antibody, IgG4, V domains shown)
VH: not shown
VL: B1 VL with N93Y, T96H
notes: IgG4 backbone
Turning to B7, in experiment [1], the “Mean E max” value was found to be 105% and the “Mean EC50” value is 0.108 nM. In addition, the koff with human beta-Klotho (KLB) came out at 6.5e-05 s⁻¹.

B8: 16H7 light chain variant S94D (antibody, IgG4, V domains shown)
VH: not shown
VL: B1 VL with S94D, T96H
notes: IgG4 backbone
Turning to B8, in experiment [1], the “Mean E max” value amounted to 103% and the “Mean EC50” value is 0.122 nM. In the experiment with human beta-Klotho (KLB), this molecule registered a koff of 3.4e-05 s⁻¹.

B9: 16H7 light chain variant N93S (antibody, IgG4, V domains shown)
VH: not shown
VL: B1 VL with N93S, T96H
notes: IgG4 backbone
For B9, in experiment [1], the “Mean E max” value was found to be 101% and the “Mean EC50” value was 0.105 nM. The same molecule came in with a koff in the experiment with human beta-Klotho (KLB) of 3.4e-05 s⁻¹.

B10: 16H7 light chain variant N93V (antibody, IgG4, V domains shown)
VH: not shown
VL: B1 VL with N93V, T96H
notes: IgG4 backbone
As for B10, in experiment [1], the “Mean E max” value amounted to 108% and the “Mean EC50” value was 0.139 nM. The molecule further had an off-rate constant (koff) with human beta-Klotho (KLB) of 4e-05 s⁻¹.

B11: 16H7 light chain variant H96V (antibody, IgG4, V domains shown)
VH: not shown
VL: B1 VL with T96V
notes: IgG4 backbone
Take B11: in experiment [1], the “Mean E max” value turned out to be 91% and the “Mean EC50” value was found to be 0.13 nM. This molecule also showed a koff with human beta-Klotho (KLB) of 4.1e-05 s⁻¹.

B12: 16H7 light chain variant H96W (antibody, IgG4, V domains shown)
VH: not shown
VL: B1 VL with T96W
notes: IgG4 backbone
On to B12, for which, in experiment [1], the “Mean E max” value turned out to be 103% and the “Mean EC50” value turned out to be 0.155 nM. In the experiment with human beta-Klotho (KLB), the koff turned out to be 0.00012 s⁻¹.

B13: 16H7 light chain variant S31N (antibody, IgG4, V domains shown)
VH: not shown
VL: B1 VL with S31N, T96H
notes: IgG4 backbone
On to B13, for which, in experiment [1], the “Mean E max” value was found to be 99% and the “Mean EC50” value is 0.124 nM. The molecule also displayed a koff with human beta-Klotho (KLB) of 7.6e-05 s⁻¹.

B14: 16H7 light chain variant S51L (antibody, IgG4, V domains shown)
VH: not shown
VL: B1 VL with S51L, T96H
notes: IgG4 backbone
On to B14, for which, in experiment [1], the “Mean E max” value was found to be 97% and the “Mean EC50” value came to 0.099 nM. Besides, the koff with human beta-Klotho (KLB) amounted to 9.6e-05 s⁻¹.

B15: 16H7 light chain variant N93D (antibody, IgG4, V domains shown)
VH: not shown
VL: B1 VL with N93D, T96H
notes: IgG4 backbone
For the molecule B15, in experiment [1], the “Mean E max” value is 108% and the “Mean EC50” value worked out at 0.123 nM. Moreover, the koff in the experiment with human beta-Klotho (KLB) is 3.8e-05 s⁻¹.

B16: 16H7 light chain variant S94C (antibody, IgG4, V domains shown)
VH: not shown
VL: B1 VL with S94C, T96H
notes: IgG4 backbone
Consider B16, for which, in experiment [1], the “Mean E max” value was found to be 99% and the “Mean EC50” value was found to be 0.138 nM. In the experiment with human beta-Klotho (KLB), this molecule registered a koff of 1e-07 s⁻¹.

B17: 16H7 light chain variant N93T (antibody, IgG4, V domains shown)
VH: not shown
VL: B1 VL with N93T, T96H
notes: IgG4 backbone
B17: in experiment [1], the “Mean E max” value came to 103% and the “Mean EC50” value was found to be 0.161 nM. The molecule further gave a dissociation rate constant (koff) with human beta-Klotho (KLB) of 3.1e-05 s⁻¹.

B18: 16H7 light chain variant S51R (antibody, IgG4, V domains shown)
VH: not shown
VL: B1 VL with S51R, T96H
notes: IgG4 backbone
In the case of B18, in experiment [1], the “Mean E max” value stood at 98% and the “Mean EC50” value was 0.103 nM. This molecule registered a koff in the experiment with human beta-Klotho (KLB) of 0.00012 s⁻¹.

B19: 16H7 light chain variant H96Y (antibody, IgG4, V domains shown)
VH: not shown
VL: B1 VL with T96Y
notes: IgG4 backbone
As to B19, in experiment [1], the “Mean E max” value is 103% and the “Mean EC50” value is 0.134 nM. This molecule also showed a koff in the experiment with human beta-Klotho (KLB) of 6.9e-05 s⁻¹.

B20: 16H7 light chain variant S94A (antibody, IgG4, V domains shown)
VH: not shown
VL: B1 VL with S94A, T96H
notes: IgG4 backbone
B20: in experiment [1], the “Mean E max” value was 99% and the “Mean EC50” value was 0.107 nM. The molecule also showed an off-rate (koff) in the experiment with human beta-Klotho (KLB) of 4.6e-05 s⁻¹.

B21: 16H7 light chain variant N93C (antibody, IgG4, V domains shown)
VH: not shown
VL: B1 VL with N93C, T96H
notes: IgG4 backbone
With B21, in experiment [1], the “Mean E max” value was 107% and the “Mean EC50” value was determined as 0.148 nM. Further, the koff in the experiment with human beta-Klotho (KLB) amounted to 5.8e-05 s⁻¹.

B22: 16H7 light chain variant S51Q (antibody, IgG4, V domains shown)
VH: not shown
VL: B1 VL with S51Q, T96H
notes: IgG4 backbone
As for B22, in experiment [1], the “Mean E max” value amounted to 107% and the “Mean EC50” value stood at 0.115 nM. This molecule came in with a koff in the experiment with human beta-Klotho (KLB) of 6.5e-05 s⁻¹.

B23: 16H7 light chain variant S51T (antibody, IgG4, V domains shown)
VH: not shown
VL: B1 VL with S51T, T96H
notes: IgG4 backbone
For B23, in experiment [1], the “Mean E max” value turned out to be 102% and the “Mean EC50” value turned out to be 0.121 nM. The same molecule had a koff with human beta-Klotho (KLB) of 2.5e-05 s⁻¹.

B24: 16H7 light chain variant N93A (antibody, IgG4, V domains shown)
VH: not shown
VL: B1 VL with N93A, T96H
notes: IgG4 backbone
Regarding B24, in experiment [1], the “Mean E max” value was 101% and the “Mean EC50” value worked out at 0.108 nM. The same molecule yielded an off-rate (koff) with human beta-Klotho (KLB) of 7.5e-06 s⁻¹.

B25: 16H7 light chain variant S51I (antibody, IgG4, V domains shown)
VH: not shown
VL: B1 VL with S51I, T96H
notes: IgG4 backbone
Take B25: in experiment [1], the “Mean E max” value worked out at 102% and the “Mean EC50” value was determined as 0.097 nM. Further, the koff with human beta-Klotho (KLB) came to 5e-05 s⁻¹.

B26: 16H7 light chain variant N93R (antibody, IgG4, V domains shown)
VH: not shown
VL: B1 VL with N93R, T96H
notes: IgG4 backbone
Consider B26, for which, in experiment [1], the “Mean E max” value came out at 100% and the “Mean EC50” value stood at 0.186 nM. For the same molecule, in the experiment with human beta-Klotho (KLB), the koff is 5e-05 s⁻¹.
